For assay [1], the target named is Chemokine Receptor 5 (CCR5) with an engineered 1D4 epitope at the C-terminal tail (UniProt P51681). The assay is described as follows: sandwich ELISA, 2D7 capture, HRP-1D4 detection; CCR5 solubilised in 1% (w/v) DDM.
For assay [2] the target is unchanged. The experiment in a line: sandwich ELISA, 2D7 capture, HRP-1D4 detection; CCR5 reconstituted into NABBs with POPC and zap1 (sample 7). (ELISA stands for enzyme-linked immunosorbent assay.)
Assay [3] has the same target. The experiment in a line: cell-based or functional assay.
In assay [4] the target is holotransducin (Gt) (bovine) (UniProt P04695). The assay is described as follows: cell-based or functional assay.
holotransducin (Gt) (bovine), sequence (P04695 2-350, chain 1 of 3): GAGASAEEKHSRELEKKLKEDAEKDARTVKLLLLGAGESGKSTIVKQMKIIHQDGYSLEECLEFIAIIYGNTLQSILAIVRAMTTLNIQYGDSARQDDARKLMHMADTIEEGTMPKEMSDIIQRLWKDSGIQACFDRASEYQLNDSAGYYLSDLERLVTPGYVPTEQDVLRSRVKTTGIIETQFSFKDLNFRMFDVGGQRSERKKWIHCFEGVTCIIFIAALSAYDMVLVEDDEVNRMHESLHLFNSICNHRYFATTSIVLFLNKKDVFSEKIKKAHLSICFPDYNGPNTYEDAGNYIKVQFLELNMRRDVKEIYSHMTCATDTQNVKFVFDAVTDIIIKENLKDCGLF
holotransducin (Gt) (bovine), sequence (P62871 2-340, chain 2 of 3, further chain): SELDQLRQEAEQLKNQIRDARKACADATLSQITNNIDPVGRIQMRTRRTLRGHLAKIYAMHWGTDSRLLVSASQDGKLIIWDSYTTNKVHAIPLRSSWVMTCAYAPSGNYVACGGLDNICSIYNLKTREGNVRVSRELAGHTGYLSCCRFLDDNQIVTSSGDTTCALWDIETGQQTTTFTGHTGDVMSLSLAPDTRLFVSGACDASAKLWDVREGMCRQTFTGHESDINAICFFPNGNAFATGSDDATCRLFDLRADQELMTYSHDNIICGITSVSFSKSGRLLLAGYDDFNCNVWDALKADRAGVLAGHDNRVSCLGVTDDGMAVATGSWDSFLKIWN
holotransducin (Gt) (bovine), sequence (P02698 2-71, chain 3 of 3, further chain): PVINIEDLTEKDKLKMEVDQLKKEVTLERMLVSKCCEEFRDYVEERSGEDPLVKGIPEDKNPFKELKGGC

3 substances from patent US20110059159A1 can be followed below.

On to 2D7 antibody, for which the values for the ELISA signal relative to sample 1 (% of sample 1) in assay [1] and in assay [2] were 65 and 92, respectively.
In the case of “RANTES (from UniProt P13501 24-91) (ligand)”, the enhancement of B-GTPγS binding to the G protein in assay [3] is below 30%.
On to “rhodopsin incorporated in NABBs (from UniProt P02699 1-348) (receptor)”, for which, in assay [4], the apparent pseudo first-order rate constant (kobs) of transducin activation, 1 rho-NABB amounted to 0.006 s⁻¹ and the apparent pseudo first-order rate constant (kobs) of transducin activation, 2rho-NABB stood at 0.003 s⁻¹.
